Laboratory results: US6017743A, “Siaα 2,3, Galβ 1, 4Glc NAcα 2,8-sialyltransferase” (The Institute of Physical and Chemical Research, priority 1995, dated 2000)

Experiments:
[1] = target: asialo-α1-acid glycoprotein
fetuin [2] = target: fetuin
[3] = target: transferrin (bovine) (bovine) (UniProt Q29443)
[4] = target: bovine submaxillary mucin (bovine)
fetuin [5] = target: fetuin; remark: listed apart in the source
[6] = target: T1, mouse Siaα 2,3Galβ 1,4GlcNAc α 2,8-sialyltransferase O3 (ST8Sia III), protein A-fused soluble enzyme, SEQ. ID. No.3 (active domain of SEQ. ID. No.1) (Mus musculus, UniProt Q64689); assay: Kinetic properties of the sialyltransferase of the present invention (sialyltransfer from CMP-[14C]NeuAc to glycolipid acceptors, HPTLC/radio image analysis); assay type: biochemical; details: acceptor substrate, Table 2
T1 construct: ID; No.3 and 4, respectively; IgM signal peptide (N); made in house; host or cells: COS-7 cells (transient transfection with pcDSA-O3; secreted into the medium, adsorbed to IgG-Sepharose)
T1 sequence (Q64689 42-380): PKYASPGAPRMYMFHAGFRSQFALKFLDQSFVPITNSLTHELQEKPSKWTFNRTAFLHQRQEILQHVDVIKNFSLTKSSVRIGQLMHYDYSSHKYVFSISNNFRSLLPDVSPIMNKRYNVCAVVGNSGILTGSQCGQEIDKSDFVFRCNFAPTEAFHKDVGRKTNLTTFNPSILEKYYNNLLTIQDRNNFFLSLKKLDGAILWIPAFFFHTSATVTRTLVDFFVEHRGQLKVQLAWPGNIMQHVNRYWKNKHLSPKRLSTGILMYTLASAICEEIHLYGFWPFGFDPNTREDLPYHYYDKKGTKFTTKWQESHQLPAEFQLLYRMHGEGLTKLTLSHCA
Excerpt: To facilitate functional analysis of the sialyltransferase of the present invention, expression plasmid pcDSA-O3 was constructed and transfected into COS-7 cells, and the protein A fused-protein containing an active domein of the sialyltransferase of the present invention (i.e. a soluble enzyme; hereinafter referred to as the fused protein of the present invention) was adsorbed to IgG-Sepharose in the medium and used as the enzyme source. The amino acid sequence of the fused protein and the gene encoding the fused protein are shown as SEQ. ID. No.3 and 4, respectively.
A truncated form of the sialyltransferase of the present invention (ST8Sia-III), lacking the first 39 amino acids of the open reading frame, was prepared by PCR amplification with 5'- and 3'-primers containing a XhoI site, respectively (5'-CATCTTCTCGAGTCCC AAGTACGCCAGCCCG-3' and 5'-[…]-3'). […]
The single insertion in the correct orientation was finally analyzed by restriction enzyme treatment and DNA sequencing. […]
For glycolipid acceptors, the incubation mixtures were applied on a C-18 column (Sep-Pak Vac, 100 mg; Waters, Milford, Mass., U.S.A.) which was washed with water. […] The radioactive materials in glycoproteins or glycolipids were visualized with a BAS2000 radio image analyzer (Fuji Film, Japan), and the radioactivity incorporated into acceptor glycoproteins was counted.

Substance | sialyltransferase activity toward the acceptor (pmol/ml medium, h) (pmol/ml medium, h) [1] | sialyltransferase activity toward the acceptor (pmol/ml medium, h) (pmol/ml medium, h) (fetuin [2]) | sialyltransferase activity toward the acceptor (pmol/ml medium, h) (pmol/ml medium, h) (asialofetuin) | sialyltransferase activity toward the acceptor (pmol/ml medium, h) (pmol/ml medium, h) [3] | sialyltransferase activity toward the acceptor (pmol/ml medium, h) (pmol/ml medium, h) [4] | sialyltransferase activity toward the acceptor (pmol/ml medium, h) (pmol/ml medium, h) (ovomucoid) | sialyltransferase activity toward the acceptor (pmol/ml medium, h) (pmol/ml medium, h) (α1-acid glycoprotein) | Km (fetuin [5]) | Km ([6]; 0.1 M sodium cacodylate pH 6.0, 37° C., CMP-[14C]NeuAc donor) | Vmax [6]
mouse ST8Sia II (STX) (from UniProt O35696) (enzyme) | < 0.1 | 8 | < 0.1 | 0.38 | < 0.1 | 1.3 | 7.6 | – | – | –
protein A-fused soluble enzyme containing an active domain of Siaα2,3Galβ1,4GlcNAc α2,8-sialyltransferase O3 (mouse ST8Sia-III) | < 0.1 | 92.1 | < 0.1 | 1.3 | < 0.1 | 1.7 | 7.8 | 20 µM | – | –
human ST8Sia I (GD3 synthase) expressed by Namalwa cells (from UniProt Q92185) (enzyme) | < 0.01 | < 0.01 | < 0.01 | < 0.01 | < 0.01 | < 0.01 | < 0.01 | – | – | –
Siaα 2,3Galβ 1,4GlcNAc β 1,4Galβ 1,4Glcβ1,1Cer [2,3-SPG] | – | – | – | – | – | – | – | – | 82 µM | 9.2 pmol/h,ml
